In US6218508A, “Anti-microbial proteins” (Novartis AG, priority 1993, dated 2001):

Tested on: C. beticola
Test: micro-titre plate bioassay of fungal growth inhibition
Assay type: cell-based
Details: spores of C. beticola, 96 well micro-titre plates, absorbance at 620 nm; FIGS. 4 and 7: 10 ug protein
Description: The thus obtained IWF is fractionated by cation exchange chromatography on a 10 ml CM-Sepharose column (Pharmacia LKB) pre-equilibrated in starting buffer (20 mM HAc (pH 4.5)). The fractionation is performed at 4° C. at a flow rate of 25 ml/h. Fractions of 3 ml are collected. Proteins not bound to the column are removed by extensive washing of the column with starting buffer. Bound proteins are eluted by applying to the column further starting buffer comprising stepwise increased salt concentrations: viz, 0.1 M NaCl, 0.3 M NACl and 0.5 M NaCl. The absorbance at 280 nm of the eluate is measured, and fractions judged to comprise protein are tested for their anti-fungal activity against C. beticola using the microtiter plate bioassay described previously (PCT Patent Application No. PCT/DK92/00108, Publication No. WO 92/17591, now assigned to Sandoz LTD). […] The inhibition of fungal growth is measured in 96 well micro-titre plates at 620 nm, essentially as described in WO 92/17591. […] The proteins, either alone or in combination with WIN N (which is purified from barley grain or stressed barley leaf as described by Hejgaard et al (FEBS Letters, 307, 389-392 (1992)), and/or a protein having a sequence corresponding to at least one of those given in SEQ ID Nos. 4-6, are incubated with spores of C. beticola. The assay mix (240 ul) contains 100 ul of potato dextrose broth (Difco), 40 ul protein sample (or buffer control) in 100 mM Tris and 20 mM NaCl (pH 8.0) as well as approximately 400 spores in 100 ul water. The micro-titre plates are sealed with tape to avoid evaporation and contamination and subsequently incubated at room temperature on an agitator operated at 200 rpm. The absorbance at 620 nm is measured each day for 8 days and plotted for each concentration of protein vs time.

Row | Molecule | anti-fungal activity (inhibition of fungal growth)
1 | SEQ ID No 3: anti-fungal protein of 2.5-3 kDa from sugar beet leaf intercellular washing fluid, peaks 1 and 2 in FIG. 6 (SGECNMYGRCPPGYCCSKFGYCGVGRAYCG) | significant anti-fungal activity
2 | SEQ ID No 1: anti-fungal protein of about 7 kDa from sugar beet leaf intercellular washing fluid, peak 3.1 in FIG. 3 (protein) ITCGLVASKLAPCIGYLQGAPGPSAGCCGGIKGLNSAAASPADRKTACTCLKSAATSIKGINYGKAASLPRQCGVSVPYAISPNTNCNAIH | significant anti-fungal activity
3 | SEQ ID No 2: anti-fungal protein of about 7 kDa from sugar beet leaf intercellular washing fluid, peak 3.2 in FIG. 3 (protein) ITCGLVASKLAPCIGYLQGAPGPSAGCCGGIKGLNSAAASPADRKTACTCLKSAATSMKGINYGKAASLPRQCGVSIPYAISPNTNCNAIH | significant anti-fungal activity
